The values below are quoted from earlier work in article PMC5580684.

Several values for one entry are separate records, joined by “and”; a condition that tells them apart may be missing. Identical values can stand only once.

The data set has as its target DNA polymerase beta (Homo sapiens) (UniProt P06746).

A word on the Kd: it is the concentration at which binding is half-saturated. In the case of XRCC1 NTD (from UniProt P18887), the dissociation constant Kd was 300 µM and 100 µM.
